# The RNAGym collection of RNA variant scans (doi:10.7554/elife.90254)
# B1: LINE1-full (parent)
# chain: UACGUAGGUGGUUUUCCCCUGAUAGUGCUAAGGGGGCCUGGAAGUUUGGACUGGGCAGAGCUCAACACAGCGUGGCAAAGUGGCUGUGGCUAGACUGCCUCUCUGGAUUCCUCGUCACUCAGCAGGGCAUCUCUGAGAGAAAUGCC
# Variants of: B1
# Experiment: self-cleavage, relative activity (ratio to wild type); higher = more cleavage; in vitro, sequencing; the parent is a self-cleaving ribozyme
row,Variant,self-cleavage
1,U12G U104C,1.48
2,A50G U81C,0.7
3,C37U A78G,0.96
4,A65G U115A,0.04
5,U20C G126A,1.8
6,U47C C84G,0.11
7,G70A U132G,0.19
8,G21A U52A,1.76
9,A121C C146U,1.77
10,U52G U73A,1.74
11,G35U U104C,0.8
12,C56A U143A,0.09
13,U45C A79G,1.15
14,U87C U91C,0.31
15,A42U U112A,1.15
16,U1A U29C,0.84
17,G48A A65G,0.03
18,G82U A92U,0.43
19,A124C A129G,0.66
20,U13A U73C,0.94
21,U9C C66U,0.08
22,U45A A124U,1.39
23,A57G G139U,0.48
24,G35A U130A,1.1

row,Variant,self-cleavage
1,C95A A136U,0.05
2,G49A U134A,1.05
3,U39A A117U,1.63
4,U5A U9A,0
5,U13C C98U,0.35
6,U26C U62A,0.02
7,U109A U119A,1.36
8,G21U G127A,1.99
9,A77U G126A,1.46
10,A57G A136U,0.95
11,U23C G74A,0.99
12,G137C,1.3
13,U29A U134C,0.87
14,U13A C56A,0.05
15,G4A A107G,1.6
16,U15A U87G,0.2
17,G97U C145U,0.04
18,C17U U23G,1.11
19,A43G U119C,1.51
20,A57G U87G,0.14
21,U12C C90U,0.04
22,U26A C103U,0.98
23,G27A C111A,1.16
24,U104G C113U,0.83

row,Variant,self-cleavage
1,A42G U100A,1.28
2,U45A U47A,1.17
3,A67U G105U,0.12
4,U62C U100A,0.05
5,U39A A136G,1.49
6,U45C U85A,0.12
7,U12A G127A,0.66
8,G53U U112C,1.31
9,G27A A65G,0.05
10,U15C A140U,1.61
11,A79G A142G,1.12
12,U96A C128U,0.07
13,G93U A141G,0.03
14,A59G C90U,0.03
15,G33C G89U,0.06
16,A79G U91C,0.45
17,A78U C99U,1.07
18,G53A A64G,0.12
19,A42U A57G,0.63
20,U52G U115C,1.71
21,U1A A78C,1.65
22,U15C G114A,0.71
23,U9C A65U,0.32
24,U12C A141G,1.5

row,Variant,self-cleavage
1,A42G A64U,0.52
2,G83A U115C,1.47
3,G105A A136G,1.28
4,U134A A136G,0.53
5,G83A U119C,1.51
6,A30U A31G,1.23
7,A2U U130C,0.32
8,U20C A92U,0.72
9,A78U G89A,0.07
10,U29C G83A,0.43
11,C68U A117U,0.25
12,U52C A67U,0.16
13,A50G U52G,0.18
14,U62C,0.05
15,U62G,0.05
16,C84U U87C,0.04
17,G35A G36C,1.05
18,U1A A59U,0.91
19,U87C A142U,0.09
20,U87A A136U,0.1
21,A30U G125U,1.17
22,A59U U108C,1.09
23,U5A A50G,0.78
24,C28A U134C,1.92

row,Variant,self-cleavage
1,C98U U108C,0.48
2,U14C U87A,0.15
3,A30U C101U,1.35
4,A50G A94G,0.32
5,C63U U96C,0
6,U87C U130A,0.19
7,U87C A124G,0.11
8,U23A U81C,0.86
9,U14G A42U,0.76
10,A79G G144A,1.5
11,A57U A117C,0.28
12,G54A U87C,0.1
13,G53U U115C,1.91
14,U15A G48C,0.71
15,A22G A117U,1.29
16,A42G G125A,1.25
17,G122A U134C,1.43
18,A65C A124G,0.1
19,U62C A121C,0.15
20,U5C G137A,1.38
21,C131A,1.48
22,A30G C103A,0.85
23,U85G A138G,0.22
24,A67G,0.5

row,Variant,self-cleavage
1,U1C U132C,0.97
2,G34A G54A,0.78
3,A69G G122A,0.4
4,A6G A42G,1.15
5,C19G U85C,0.24
6,G35U G55U,0.72
7,A78G A124U,1.45
8,U23C U47A,1.9
9,G21A A124G,0.9
10,C38U A142U,0.32
11,A67G G88A,0.05
12,G41A A79G,1
13,U100C U115A,1.87
14,G32A A129G,0.93
15,A6U U109A,0.99
16,U15A G60U,0.07
17,U47C A64U,0.52
18,G7A C56U,0.17
19,C56U A124G,0.08
20,C17U A94G,0.31
21,C118U A138G,1.18
22,A64U U87G,0.11
23,A24G G25U,1.14
24,G114A A129U,1.33

row,Variant,self-cleavage
1,U85G U102C,0.55
2,U9C G137A,1.15
3,U12C A129G,1.4
4,G11U A124U,1.31
5,C99U U119A,0.79
6,C19G A31G,0.73
7,U14A A140G,0.91
8,G10A A121G,1.37
9,G74A,0.95
10,A57U C63A,0.04
11,A24G A57U,0.27
12,U12G A107G,1.58
13,C16U U62C,0.09
14,G4A C17A,0.92
15,A24U U130C,1.35
16,U85A U132C,0.09
17,G27A U132C,1.27
18,U26C G53U,1.2
19,A69U A79C,0.12
20,A22U G144A,1.08
21,U13C U100C,1.4
22,C18U U104C,0.23
23,A30G U62C,0.13
24,A107U C113U,0.69

row,Variant,self-cleavage
1,U15C U130G,1.49
2,A6G U26A,0.68
3,G86U A107G,0.02
4,U9A U85A,0.09
5,U14G A140U,0.64
6,U73C C116U,1.39
7,G40A A59U,0.54
8,G33C A136G,0
9,U29C U130G,1.84
10,U20C A141U,1.36
11,U20C A141G,1.54
12,U13C A57G,0.76
13,U23C C120U,0.55
14,G54A A121G,0.51
15,G4A A121G,1.78
16,A69G A117G,0.5
17,G48A U132C,1.29
18,U12C G25A,1.18
19,U115C A141U,1.27
20,U20A A30G,0.9
21,C71U A129G,0.91
22,U5C A92G,0
23,U29C A124G,1.02
24,U47C G89A,0.02

row,Variant,self-cleavage
1,A31U A67G,0.41
2,A64U U134A,0.16
3,C123U U132A,1.13
4,A59G G126U,0.11
5,A24U U81C,1.24
6,A65G U87C,0.16
7,U62C A136G,0.06
8,A43G G126A,1.16
9,A129C A136G,1.61
10,A64U C71U,0.37
11,G4U C61U,0.08
12,U13C U20C,1.06
13,U13C U115C,1.53
14,A43G A136G,1.5
15,U20C A67G,0.74
16,U9C U96A,0.15
17,A79G C99U,0.38
18,U112C U130A,1.59
19,U62C A141G,0.03
20,A59G U100C,0.16
21,C90U A136G,0.05
22,A31G U81A,0.66
23,A31G A124U,1.3
24,U130A C133U,2.3

row,Variant,self-cleavage
1,A57G A69U,0.07
2,U73A A124C,2.02
3,G11A A124U,1.43
4,C19U U23A,1.1
5,U15C C76A,1.2
6,U29C C84G,0.14
7,C98U C146U,0.32
8,C110A G139A,1.17
9,U47C U108G,1.41
10,A77G G135U,0.63
11,U112G A117U,1.92
12,G70U C90G,0.02
13,U14C U73C,1.62
14,A30U U87C,0.23
15,U119C G135A,2.34
16,A2G A129G,0.46
17,A42U A79G,1.16
18,A50G A69U,0.1
19,C56U U100C,0.44
20,A6G G7U,1.33
21,U13A A67G,0.22
22,U81A C103U,0.63
23,U29C A107U,1.21
24,U45C C68U,0.16

row,Variant,self-cleavage
1,U108C U130G,1.02
2,U108C U130C,1.66
3,U115C U134C,1.61
4,U96A U134A,0.08
5,U91G U108C,0
6,G60C U96A,0.04
7,G33U A129G,1.34
8,A42G U132C,1.48
9,A94C A140G,0.04
10,G105A G114A,0.75
11,A65U A92G,0.03
12,A50U A141U,0.68
13,C38A G55C,0.07
14,A107G G135A,1.64
15,A65G U91C,0
16,U1C A79U,2.16
17,U13A C128U,1.61
18,A22C U96C,0.26
19,A67U A107G,0
20,A117G A129U,1.29
21,C84U G89A,0.04
22,U81A G127A,1.72
23,C3G A141G,0.66
24,A124C A138C,1.86

row,Variant,self-cleavage
1,U15C,1.42
2,U46A U52G,1.33
3,U47C A65G,0.09
4,C98U A141G,0.45
5,U9C A142U,1.38
6,A117G A124G,0.69
7,U13G A67G,1.9
8,A43U U109A,1.38
9,U81C C128U,1.19
10,U26A A140G,1.02
11,G74A U100C,1.62
12,U9C A78G,1.19
13,A59G G97A,0.03
14,U15C G33A,1.05
15,G27A U130C,1.34
16,U52A C146A,1.16
17,A31U A64G,0.2
18,U115C A129G,1.64
19,G41U C98U,0.12
20,U13C A77C,1.15
21,A31G G114A,1.09
22,G72U A140G,0.6
23,A30U A57U,0.13
24,U91A C116U,0.53

row,Variant,self-cleavage
1,G60U A64U,0.05
2,A69G C123G,0.84
3,U14A U39A,0.8
4,A57U A69U,0
5,A77G U134C,2.54
6,U14C U112A,1.17
7,C3A U115C,1.22
8,G49A U119A,1.15
9,U108C U143C,1.75
10,U1C A59G,0.1
11,A24U A59G,0.06
12,G7U U9C,1.56
13,A92G U100C,0.14
14,A69G C118U,0.2
15,U9C G122A,1.43
16,G33U A107G,1.74
17,U15C U45A,1.49
18,U39A U81C,1.39
19,C103U A140U,1.72
20,U87C A92G,0.1
21,A107C U130C,0
22,U47C A50G,1.14
23,U81A A136U,2.35
24,A64C A142U,0.37

row,Variant,self-cleavage
1,U12G A117G,1.35
2,G75A A94G,0.25
3,G122A A142G,0.42
4,U52C A138C,1.62
5,C16U A141G,1.13
6,U47G U85C,0.33
7,C120G A129G,1.23
8,A2G C37U,0.89
9,U29A C110U,1.07
10,U12G C61A,0.14
11,C61U A124U,0.03
12,A6G U52C,0.72
13,G4A A30G,0.59
14,U87A A117U,0.04
15,A2G U14C,0.93
16,U9A A117U,1.11
17,U14C G32C,1.58
18,A30G U143C,1.06
19,A64C A117G,0.42
20,U85C A117U,0.19
21,G36A G40U,0.66
22,U115A U132A,1.03
